From patent US20220170923A1 (NATIONAL CHENG KUNG UNIVERSITY, published 2022)

Target: T1, human angiotensin-converting enzyme 2 (ACE2) (human, UniProt Q9BYF1 18-740)
T1 construct: also called ACE2 receptor; human angiotensin-converting enzyme 2 on a cell surface
Test: protein microarray, ACE2 in solution, Cy3 labeled anti-human IgG detection

T1 sequence (Q9BYF1 18-740 limits assumed): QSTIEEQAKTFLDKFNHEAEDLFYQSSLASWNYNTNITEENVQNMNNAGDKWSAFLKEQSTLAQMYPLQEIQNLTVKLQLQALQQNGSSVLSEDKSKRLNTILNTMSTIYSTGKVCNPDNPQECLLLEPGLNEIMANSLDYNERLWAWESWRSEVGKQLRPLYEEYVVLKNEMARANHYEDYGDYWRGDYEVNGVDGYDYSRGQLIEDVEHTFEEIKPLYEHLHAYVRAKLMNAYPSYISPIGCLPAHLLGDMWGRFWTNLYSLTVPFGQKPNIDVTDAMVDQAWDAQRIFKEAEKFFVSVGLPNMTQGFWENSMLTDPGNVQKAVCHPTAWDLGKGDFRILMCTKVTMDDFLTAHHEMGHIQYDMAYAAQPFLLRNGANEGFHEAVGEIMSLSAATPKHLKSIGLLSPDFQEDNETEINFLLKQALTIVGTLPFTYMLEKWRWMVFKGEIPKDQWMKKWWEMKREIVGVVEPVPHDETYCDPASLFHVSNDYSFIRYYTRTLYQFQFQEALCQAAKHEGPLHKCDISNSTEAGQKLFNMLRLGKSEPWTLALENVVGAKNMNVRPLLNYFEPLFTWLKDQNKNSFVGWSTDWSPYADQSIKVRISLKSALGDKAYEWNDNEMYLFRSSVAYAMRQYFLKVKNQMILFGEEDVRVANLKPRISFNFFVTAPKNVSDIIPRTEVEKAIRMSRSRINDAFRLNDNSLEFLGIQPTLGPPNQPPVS

B1: spike protein (S protein) of MERS-CoV with His-tag (other)
chain: YVDVGPDSVKSACIEVDIQQTFFDKTWPRPIDVSKADGIIYPQGRTYSNITITYQGLFPYQGDHGDMYVYSAGHATGTTPQKLFVANYSQDVKQFANGFVVRIGAAANSTGTVIISPSTSATIRKIYPAFMLGSSVGNFSDGKMGRFFNHTLVLLPDGCGTLLRAFYCILEPRSGNHCPAGNSYTSFATYHTPATDCSDGNYNRNASLNSFKEYFNLRNCTFMYTYNITEDEILEWFGITQTAQGVHLFSSRYVDLYGGNMFQFATLPVYDTIKYYSIIPHSIRSIQSDRKAWAAFYVYKLQPLTFLLDFSVDGYIRRAIDCGFNDLSQLHCSYESFDVESGVYSVSSFEAKPSGSVVEQAEGVECDFSPLLSGTPPQVYNFKRLVFTNCNYNLTKLLSLFSVNDFTCSQISPAAIASNCYSSLILDYFSYPLSMKSDLSVSSAGPISQFNYKQSFSNPTCLILATVPHNLTTITKPLKYSYINKCSRFLSDDRTEVPQLVNANQYSPCVSIVPSTVWEDGDYYRKQLSPLEGGGWLVASGSTVAMTEQLQMGFGITVQYGTDTNSVCPKLEFANDTKIASQLGNCVEYSLYGVSGRGVFQNCTAVGVRQQRFVYDAYQNLVGYYSDDGNYYCLRACVSVPVSVIYDKETKTHATLFGSVACEHISSTMSQYSRSTRSMLKRRDSTYGPLQTPVGCVLGLVNSSLFVEDCKLPLGQSLCALPDTPSTLTPRSVRSVPGEMRLASIAFNHPIQVDQLNSSYFKLSIPTNFSFGVTQEYIQTTIQKVTVDCKQYVCNGFQKCEQLLREYGQFCSKINQALHGANLRQDDSVRNLFASVKSSQSSPIIPGFGGDFNLTLLEPVSISTGSRSARSAIEDLLFDKVTIADPGYMQGYDDCMQQGPASARDLICAQYVAGYKVLPPLMDVNMEAAYTSSLLGSIAGVGWTAGLSSFAAIPFAQSIFYRLNGVGITQQVLSENQKLIANKFNQALGAMQTGFTTTNEAFHKVQDAVNNNAQALSKLASELSNTFGAISASIGDIIQRLDVLEQDAQIDRLINGRLTTLNAFVAQQLVRSESAALSAQLAKDKVNECVKAQSKRSGFCGQGTHIVSFVVNAPNGLYFMHVGYYPSNHIEVVSAYGLCDAANPTNCIAPVNGYFIKTNNTRIVDEWSYTGSSFYAPEPITSLNTKYVAPQVTYQNISTNLPPPLLGNSTGIDFQDELDEFFKNVSTSIPNFGSLTQINTTLLDLTYEMLSLQQVVKALNESYIDLKELGNYTYYNKWPW
  binding result: no binding (tested: 25 ng, 50 ng, 75 ng, 100 ng, and 125 ng)
